Reference: article PMC6994035

Key:
Assay in all cases: EMSA
Mbd4-Strep = Mbd4-Strep (UniProt Q9Z2D7 1-554)
mcherry-Tet1CD = mcherry-Tet1CD (UniProt Q3URK3 1367-2039)
MBD-YFP (MBD of Mecp2) = MBD-YFP (MBD of Mecp2) (UniProt Q9Z2D6 77-167)

Measured: binding result

Sequence of MBD-YFP (MBD of Mecp2) (Q9Z2D6 77-167): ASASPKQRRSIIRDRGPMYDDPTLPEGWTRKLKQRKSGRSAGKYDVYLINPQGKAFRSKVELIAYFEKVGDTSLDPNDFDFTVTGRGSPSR
Sequence of mcherry-Tet1CD (Q3URK3 1367-2039): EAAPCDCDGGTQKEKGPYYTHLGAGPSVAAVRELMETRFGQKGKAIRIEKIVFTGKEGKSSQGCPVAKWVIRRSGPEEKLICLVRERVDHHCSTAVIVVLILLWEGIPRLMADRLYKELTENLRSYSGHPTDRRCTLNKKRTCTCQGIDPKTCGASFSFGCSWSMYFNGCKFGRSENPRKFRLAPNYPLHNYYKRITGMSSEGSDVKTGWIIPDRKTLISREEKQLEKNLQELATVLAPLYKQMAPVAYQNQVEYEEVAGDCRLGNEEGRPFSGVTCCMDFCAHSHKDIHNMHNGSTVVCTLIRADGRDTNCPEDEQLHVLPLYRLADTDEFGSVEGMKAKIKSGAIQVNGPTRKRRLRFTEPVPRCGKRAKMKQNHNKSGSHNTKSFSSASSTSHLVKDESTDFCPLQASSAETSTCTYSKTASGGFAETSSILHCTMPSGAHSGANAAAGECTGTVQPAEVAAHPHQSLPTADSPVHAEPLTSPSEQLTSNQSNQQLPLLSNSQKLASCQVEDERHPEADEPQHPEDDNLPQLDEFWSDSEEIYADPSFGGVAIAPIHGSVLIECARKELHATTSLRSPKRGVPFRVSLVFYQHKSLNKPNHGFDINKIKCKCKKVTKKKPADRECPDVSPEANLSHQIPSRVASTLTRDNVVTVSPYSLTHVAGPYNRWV
Sequence of Mbd4-Strep (Q9Z2D7 whole entry): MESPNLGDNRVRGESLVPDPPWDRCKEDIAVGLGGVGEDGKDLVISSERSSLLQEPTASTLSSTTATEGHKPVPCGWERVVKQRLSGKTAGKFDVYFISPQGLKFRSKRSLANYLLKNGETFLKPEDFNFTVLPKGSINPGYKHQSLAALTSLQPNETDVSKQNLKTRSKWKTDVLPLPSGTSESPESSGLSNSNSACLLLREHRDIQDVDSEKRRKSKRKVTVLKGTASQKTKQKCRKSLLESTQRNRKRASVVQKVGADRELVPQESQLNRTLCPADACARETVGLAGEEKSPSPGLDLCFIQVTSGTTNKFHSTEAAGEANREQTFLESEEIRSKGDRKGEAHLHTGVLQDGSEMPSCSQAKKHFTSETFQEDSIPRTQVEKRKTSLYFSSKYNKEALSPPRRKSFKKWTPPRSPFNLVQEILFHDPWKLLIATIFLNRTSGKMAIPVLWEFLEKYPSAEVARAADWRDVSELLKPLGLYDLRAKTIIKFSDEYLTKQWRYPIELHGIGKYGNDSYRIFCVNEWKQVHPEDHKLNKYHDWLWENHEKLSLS

B1: mC:mC fully methylated CpG 42-mer (dsDNA)
DNA 1: CTCAACAACTAACTACCATCCGGACCAGAAGAGTCATCATGG
DNA 2: CCATGATGACTCTTCTGGTCCGGATGGTAGTTAGTTGTTGAG
modifications: 5mC at position 21 of both strands
binds: Mbd4-Strep | mcherry-Tet1CD | MBD-YFP (MBD of Mecp2)
